From FireProtDB come the findings set out here.

Positions count from the first letter of the chain named. Several values for one entry are separate records, joined by “and”; a condition that tells them apart may be missing. Equal values may be shown once.

The conditions of the data set: whole UniProt chain shown; for Tm / unfolding enthalpy (calorimetric): Thermal.
[1] abbreviates: Hordeum vulgare, pH 6.3, 25 °C, GdnHCl, DSC, MES-NaOH 50 mM, reversible: yes.
Setting [2] is: Hordeum vulgare, pH 6.3, 25 °C, GdnHCl, Fluorescence, Sodium phosphate 20 mM.
The mark [3] stands for this setting: Hordeum vulgare, pH 7, 25 °C, GdnHCl, CD, Sodium phosphate 10 mM, reversible: yes.
The mark [4] stands for this setting: Hordeum vulgare, pH 7, 30 °C, GdnHCl, Fluorescence, MOPS 50 mM.
The mark [5] stands for this setting: Hordeum vulgare, pH 7.4, 25 °C, GdnHCl, CD, Tris 50 mM.
Where [6] appears, read: Mus musculus, pH 2, DSC, Potassium phosphate 40 mM, reversible: yes.
[7] abbreviates: Mus musculus, pH 2.7, DSC, Potassium phosphate 40 mM, reversible: yes.
[8] abbreviates: Mus musculus, pH 7, DSC, Potassium phosphate 40 mM, reversible: yes.
[9] abbreviates: Manduca sexta, pH 7, 25 °C, GdnHCl, CD, Potassium phosphate 50 mM, reversible: yes.
Setting [10] is: Niallia circulans, pH 6, DSC, HEPES 100 mM, reversible: No.
[11] abbreviates: Niallia circulans, pH 8.5, DSC, HEPES 100 mM, reversible: No.
Where [12] appears, read: Niallia circulans, pH 10, DSC, CHESS 100 mM, reversible: No.

B1: wild type, Q40059 (protein)
chain: MSSMEKKPEGVNIGAGDRQNQKTEWPELVGKSVEEAKKVILQDKPAAQIIVLPVGTIVTMEYRIDRVRLFVDRLDNIAQVPRVG
Turning to B1, the Tm – broadly, the temperature at which the thermal transition is half complete – (Hordeum vulgare, pH 4.15, CD, acetate 10 mM, reversible: no) was 74.3 °C. Further, under setting [1], the denaturant m value came out at 1.76 kcal/mol/M, the “denaturant midpoint (higher = more stable)” value (shortened to “denaturant midpoint”) came to 4.05 M and the unfolding free energy came out at 7.16 kcal/mol. For the same protein, under setting [2], the denaturant m value was 1.96 kcal/mol/M and 2.01 kcal/mol/M; the unfolding free energy is 7.41 kcal/mol and 7.27 kcal/mol and 7.22 kcal/mol.

B2: Subtilisin-chymotrypsin inhibitor-2A wild type, P01053 (protein)
chain: B1 chain with M4V, I13T, Q19H, Q21L, A46E, R73K
Turning to B2, the unfolding free energy (Hordeum vulgare, pH 4.2, 50 °C, GdnHCl, Fluorescence, Sodium acetate 50 mM, reversible: yes) was found to be 5.5 kcal/mol; the unfolding free energy (Hordeum vulgare, pH 6.3, 17 °C, GdnHCl, Fluorescence, MES 10 mM, reversible: yes) came to 7.47 kcal/mol; the unfolding free energy (Hordeum vulgare, pH 6.3, 21 °C, GdnHCl, Fluorescence, MES 10 mM, reversible: yes) was 7.28 kcal/mol; the unfolding free energy (Hordeum vulgare, pH 6.3, 25 °C, GdnHCl, Fluorescence, MES 10 mM, reversible: yes) came out at 7.04 kcal/mol; the unfolding free energy (Hordeum vulgare, pH 6.3, 29 °C, GdnHCl, Fluorescence, MES 10 mM, reversible: yes) is 6.76 kcal/mol; the unfolding free energy (Hordeum vulgare, pH 6.3, 32 °C, GdnHCl, Fluorescence, MES 10 mM, reversible: yes) came out at 6.52 kcal/mol. Also, the unfolding free energy turned out to be 7.04 kcal/mol under setting [3], 7.05 kcal/mol under setting [4] and 7.81 kcal/mol under setting [5]. For the same protein, the denaturant m value under setting [3] is 1.77 kcal/mol/M, the denaturant m value under setting [4] was found to be 1.92 kcal/mol/M and the denaturant m value under setting [5] was 1.82 kcal/mol/M. For the same protein, the “denaturant midpoint” value by setting is: under setting [3], 3.97 M; under setting [5], 4.29 M.

B3: cAMP-dependent protein kinase type I-beta regulatory subunit wild type, P12849 (protein)
chain: MASPSCFHSEDEDSLKGCEMYVQKHGIQQVLKECIVHLCVAKPDRPLRFLREHFEKLEKEENRQILARQKSNSQCDSHDEEISPTPPNPVVKARRRRGGVSAEVYTEEDAVSYVRKVIPKDYKTMTALAKAISKNVLFSHLDDNERSDIFDAMFPVTHIGGETVIQQGNEGDNFYVIDQGEVDVYVNGEWVTNISEGGSFGELALIYGTPRAATVKAKTDLKLWGIDRDSYRRILMGSTLRKRKMYEEFLSKVSILESLEKWERLTVADALEPVQFEDGEKIVVQGEPGDDFYIITEGTASVLQRRSPNEEYVEVGRLGPSDYFGEIALLLNRPRAATVVARGPLKCVKLDRPRFERVLGPCSEILKRNIQRYNSFISLTV
Turning to B3, the unfolding free energy came out at 7.2 kcal/mol (Mus musculus, pH 7, 23 °C, GdnHCl, Fluorescence, MOPS 5 mM, KCl 100 mM, reversible: yes) and 7 kcal/mol (Mus musculus, pH 7, 23 °C, Urea, Fluorescence, MOPS 5 mM, KCl 100 mM, reversible: yes).

B4: Cyclin-dependent kinase 4 inhibitor D wild type, P55273 (protein)
chain: MLLEEVRAGDRLSGAAARGDVQEVRRLLHRELVHPDALNRFGKTALQVMMFGSTAIALELLKQGASPNVQDTSGTSPVHDAARTGFLDTLKVLVEHGADVNVPDGTGALPIHLAVQEGHTAVVSFLAAESDLHRRDARGLTPLELALQRGAQDLVDILQGHMVAPL
For the protein B4, the “denaturant midpoint” value (Homo sapiens, pH 7.5, 15 °C, Urea, CD, Na-phospahate 20 mM, reversible: yes) was found to be 2.9 M. Besides, the Tm (Homo sapiens, pH 7.5, CD, sodium phosphate 20 mM, reversible: yes) turned out to be 51.9 °C.

B5: Ig gamma-1 chain C region secreted form wild type, P01868 (protein)
chain: AKTTPPSVYPLAPGSAAQTNSMVTLGCLVKGYFPEPVTVTWNSGSLSSGVHTFPAVLQSDLYTLSSSVTVPSSPRPSETVTCNVAHPASSTKVDKKIVPRDCGCKPCICTVPEVSSVFIFPPKPKDVLTITLTPKVTCVVVDISKDDPEVQFSWFVDDVEVHTAQTQPREEQFNSTFRSVSELPIMHQDWLNGKEFKCRVNSAAFPAPIEKTISKTKGRPKAPQVYTIPPPKEQMAKDKVSLTCMITDFFPEDITVEWQWNGQPAENYKNTQPIMNTNGSYFVYSKLNVQKSNWEAGNTFTCSVLHEGLHNHHTEKSLSHSPGK
In the case of B5, the midpoint of thermal melting (Tm) came to 69.3 °C under setting [6], 69.5 °C under setting [7] and 70.2 °C under setting [8]. Moreover, the “unfolding enthalpy (calorimetric)” value is, setting by setting: under setting [6], 84 kcal/mol; under setting [7], 86.6 kcal/mol; under setting [8], 174 kcal/mol.

B6: Apolipophorin-3 wild type, P13276 (protein)
chain: MAAKFVVVLAACVALSHSAMVRRDAPAGGNAFEEMEKHAKEFQKTFSEQFNSLVNSKNTQDFNKALKDGSDSVLQQLSAFSSSLQGAISDANGKAKEALEQARQNVEKTAEELRKAHPDVEKEANAFKDKLQAAVQTTVQESQKLAKEVASNMEETNKKLAPKIKQAYDDFVKHAEEVQKKLHEAATKQ
Turning to B6, under setting [9], the denaturant m value came out at 3.65 kcal/mol/M, the “denaturant midpoint” value stood at 0.36 M and the unfolding free energy came out at 1.29 kcal/mol. Besides, for the setting “Manduca sexta, pH 7, CD, Potassium phosphate 50 mM, reversible: yes”, the Tm is 52 °C.

B7: Phosphoserine aminotransferase wild type, Q59196 (protein)
chain: MSKRAYNFNAGPAALPLEVLERAQAEFVDYQHTGMSIMEMSHRGAVYEAVHNEAQARLLALLGNPTGYKVLFIQGGASTQFAMIPMNFLKEGQTANYVMTGSWASKALKEAKLIGDTHVAASSEASNYMTLPKLQEIQLQDNAAYLHLTSNETIEGAQFKAFPDTGSVPLIGDMSSDILSRPFDLNQFGLVYAGAQKNLGPSGVTVVIVREDLVAESPKHLPTMLRYDTYVKNNSLYNTPPSFGIYMVNEVLKWIEERGGLEGVQQANRKKASLIYDAIDQSGGFYRGCVDVDSRSDMNITFRLASEELEKEFVKASEQEGFVGLKGHRSVGGLRASIYNAVPYESCEALVQFMEHFKRSRG
Take B7: the Tm is, setting by setting: under setting [10], 71 °C; under setting [11], 58.4 °C; under setting [12], 58 °C. The “unfolding enthalpy (calorimetric)” value under setting [10] was 288 kcal/mol, the “unfolding enthalpy (calorimetric)” value under setting [11] stood at 121 kcal/mol and the “unfolding enthalpy (calorimetric)” value under setting [12] turned out to be 124 kcal/mol.
